In US20240175001A1:

Biological target: SNAP-25 (rat) (UniProt P60881)
Assay: cell-based or functional assay

Sequence of UniProt P60881 (P60881 whole entry): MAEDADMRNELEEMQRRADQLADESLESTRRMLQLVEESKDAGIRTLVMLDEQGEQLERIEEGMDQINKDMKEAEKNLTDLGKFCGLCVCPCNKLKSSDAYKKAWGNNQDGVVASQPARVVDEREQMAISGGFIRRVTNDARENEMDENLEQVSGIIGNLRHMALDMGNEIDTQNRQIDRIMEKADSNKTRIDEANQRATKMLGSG

In the case of native BoNT/A1 (LIST), the pEC50 (percentage SNAP-25 cleavage in rat eSCN, 24 h, Western blot) is reported as 12.3.
